Laboratory results published in US20230357429A1 (JANUX THERAPEUTICS, published 2023).
Positions count from the first letter of the chain named. Names and notes keep the numbering of the source. Read-outs that look alike come from different tables or passages of the source. Where no end group is shown, it is not given here.

B1: PC-18 (bispecific antibody)
light: GGVDFCALYHWPICYQGGGGSGGLSGRSDAGSPLGLAGSGGSDIQLTQSPSSLSASVGDRVSITCKASQDVSIAVAWYQQKPGKAPKLLIYSASYRYTGVPDRFSGSGSGTDFTLTISSLQPEDFAVYYCQQHYITPLTFGAGTKVEIKRTVAAPSVFIFPPSDEQLKSGTASVVCLLNNFYPREAKVQWKVDNALQSGNSQESVTEQDSKDSTYSLSSTLTLSKADYEKHKVYACEVTHQGLSSPVTKSFNRGEC
heavy: not shown
notes: Masked polypeptide complex: anti-TROP2 Fab F108A, anti-CD3 scFv wt; cleavable linkers
B2: TCE-7 (anti-CD3 wt, anti-TROP2 F108A) (bispecific antibody)
light: DIQLTQSPSSLSASVGDRVSITCKASQDVSIAVAWYQQKPGKAPKLLIYSASYRYTGVPDRFSGSGSGTDFTLTISSLQPEDFAVYYCQQHYITPLTFGAGTKVEIKRTVAAPSVFIFPPSDEQLKSGTASVVCLLNNFYPREAKVQWKVDNALQSGNSQESVTEQDSKDSTYSLSSTLTLSKADYEKHKVYACEVTHQGLSSPVTKSFNRGEC
heavy: not shown
notes: scFv on the Fab heavy chain; the entry already carries the mutation
B3: TCE-26 (anti-CD3 scFv W233A; anti-TROP2 HC wt) (bispecific antibody)
light: B2 light
heavy: not shown
notes: scFv on the Fab heavy chain; also called TCE-26 (W233A)
B4: TCE-28 (anti-CD3 scFv S235A; anti-TROP2 wt) (bispecific antibody)
light: B2 light
heavy: not shown
notes: scFv on the Fab heavy chain
B5: TCE-33 (anti-CD3 scFv F240A; anti-TROP2 wt) (bispecific antibody)
light: B2 light
heavy: not shown
notes: scFv on the Fab heavy chain; also called TCE-33 (F240A)
B6: TCE-36 (anti-CD3 scFv H101A; anti-TROP2 F108A) (bispecific antibody)
light: B2 light
heavy: not shown
notes: scFv on the Fab heavy chain
B7: Peptide-76 (peptide)
peptide: YLCGPDADETLACY
modifications: cysteine pairing not given here; also: biotinylated, site not given here
notes: mask peptide for the CD3 scFv
B8: PC-2 + MTSP1 (bispecific antibody)
light: B2 light
chain: not shown
modifications: Protease-treated product: both masks and the anti-albumin domain are cut off in the cleavable linkers.
notes: not shown: The few linker residues left at the N-terminus of each chain after the MTSP1 cut
B9: PC-3 + MTSP1 (bispecific antibody)
light: B2 light
chain: not shown
modifications: Protease-treated product: both masks and the anti-albumin domain are cut off in the cleavable linkers.
notes: as for B8

Tests used:
[1] = molecular target: T1, Human TROP2 ECD (31-274 AA), biotinylated (human, UniProt P09758 31-274, biotinylated (site not stated)); assay: ELISA on immobilized TROP2
T1 construct: also called tumor-associated calcium signal transducer 2; Human TROP2-biotin
T1 sequence: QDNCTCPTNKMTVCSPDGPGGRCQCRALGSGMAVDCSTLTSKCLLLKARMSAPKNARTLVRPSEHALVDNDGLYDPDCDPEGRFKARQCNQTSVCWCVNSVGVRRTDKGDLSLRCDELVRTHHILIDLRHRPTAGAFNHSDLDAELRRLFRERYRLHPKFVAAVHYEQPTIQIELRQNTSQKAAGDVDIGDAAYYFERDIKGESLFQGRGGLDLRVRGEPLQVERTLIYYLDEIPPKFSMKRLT

[2] = molecular target: T2, Human TROP2 ECD (31-274 AA) (human, UniProt P09758 31-274, biotinylated); assay: ELISA; biotinylated TROP2 on neutravidin plates, PC titrated, HRP secondary
T2 construct: also called biotinylated TROP2; TROP2-biotin
T2 sequence: T1 sequence

Human TROP2 Full length = molecular target: T3, Human TROP2 Full length (human, UniProt P09758 31-323); assay: cell-based or functional assay
T3 sequence: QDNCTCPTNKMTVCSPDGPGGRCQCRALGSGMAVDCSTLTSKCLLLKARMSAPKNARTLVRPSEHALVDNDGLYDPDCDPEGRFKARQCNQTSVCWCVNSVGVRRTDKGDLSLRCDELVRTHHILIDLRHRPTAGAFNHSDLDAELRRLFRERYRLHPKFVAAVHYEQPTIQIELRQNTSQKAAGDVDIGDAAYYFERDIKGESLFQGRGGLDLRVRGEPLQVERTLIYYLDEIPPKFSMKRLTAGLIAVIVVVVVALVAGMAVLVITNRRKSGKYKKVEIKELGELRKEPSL

Cyno TROP2 Full length = molecular target: T4, Cyno TROP2 Full length (cynomolgus monkey, UniProt P09758 31-323 (human entry)); assay: cell-based or functional assay
T4 chain: T3 sequence with M32V, S63N, I200V, M262V, T268S

[3] = molecular target: T1, Human TROP2 ECD (31-274 AA), …; assay: ELISA on immobilized TROP2; remark: listed apart in the source
[4] = molecular target: T1, Human TROP2 ECD (31-274 AA), …; assay: ELISA on immobilized TROP2; remark: listed apart in the source
αCD3 scFv = molecular target: T5, αCD3 scFv; assay: competition ELISA; peptide titrated and pre-incubated with a constant concentration of αCD3 scFv; blocked: binding of the scFv to plate-bound biotinylated CD3
T5 construct: also called anti-CD3 scFv; CD3 scFv (SP34.185) wt

[5] = molecular target: T6, CD3 (biotinylated CD3 antigen) (human, UniProt P07766 23-126, limits assumed, biotinylated (site not stated)); assay: ELISA: biotinylated CD3 captured on neutravidin plates, TCE titrated, HRP secondary antibody
T6 construct: also called CD3ε; human CD3

Peptide-74 = molecular target: T7, Peptide-74 (cysteine pairing not given here; also: biotinylated, site not given here); assay: ELISA, TCE on captured biotin-peptide
T7 construct: mask peptide for the CD3 scFv
T7 peptide: ASQCLGPEWEVCPY

Peptide-66 = molecular target: T8, Peptide-66 (cysteine pairing not given here; also: biotinylated, site not given here); assay: ELISA, TCE on captured biotin-peptide
T8 construct: mask peptide for the CD3 scFv
T8 peptide: GSQCLGPEWEVCPY

Peptide-75 = molecular target: T9, Peptide-75 (cysteine pairing not given here; also: biotinylated, site not given here); assay: ELISA, TCE on captured biotin-peptide
T9 construct: mask peptide for the CD3 scFv
T9 peptide: GSACLGPEWEVCPY

Peptide-68 = molecular target: T10, Peptide-68 (cysteine pairing not given here; also: biotinylated, site not given here); assay: ELISA, TCE on captured biotin-peptide
T10 construct: mask peptide for the CD3 scFv
T10 peptide: DWCWYSPDNDGLCD

Peptide-70 [6] = molecular target: T11, Peptide-70 (cysteine pairing not given here; also: biotinylated, site not given here); assay: ELISA, TCE on captured biotin-peptide
T11 construct: mask peptide for the CD3 scFv
T11 peptide: YLCGPDGDETLACY

Peptide-73 [7] = molecular target: T12, Peptide-73 (cysteine pairing not given here; also: biotinylated, site not given here); assay: ELISA, TCE on captured biotin-peptide
T12 construct: mask peptide for the CD3 scFv
T12 peptide: VYCGPEFDESVGCA

Peptide-67 = molecular target: T13, Peptide-67 (cysteine pairing not given here; also: biotinylated, site not given here); assay: ELISA, TCE on captured biotin-peptide
T13 construct: mask peptide for the CD3 scFv
T13 peptide: VYCGPEFDESVGCM

Peptide-71 = molecular target: T14, Peptide-71 (cysteine pairing not given here; also: biotinylated, site not given here); assay: ELISA, TCE on captured biotin-peptide
T14 construct: mask peptide for the CD3 scFv
T14 peptide: VDCGPDGDESILCY

[8] = molecular target: T6, CD3 (biotinylated CD3 antigen); assay: ELISA: biotinylated CD3 captured on neutravidin plates, TCE titrated, HRP secondary antibody; remark: listed apart in the source
Peptide-72 = molecular target: T15, Peptide-72 (cysteine pairing not given here; also: biotinylated, site not given here); assay: ELISA, TCE on captured biotin-peptide
T15 construct: mask peptide for the CD3 scFv
T15 peptide: AYCGPEFDESVGCM

Peptide-69 = molecular target: T16, Peptide-69 (cysteine pairing not given here; also: biotinylated, site not given here); assay: ELISA, TCE on captured biotin-peptide
T16 construct: mask peptide for the CD3 scFv
T16 peptide: SECLVDLQSDPCYW

[9] = molecular target: T6, CD3 (biotinylated CD3 antigen); assay: ELISA, TCE on captured biotin-CD3
Peptide-77 = molecular target: T17, Peptide-77 (cysteine pairing not given here; also: biotinylated, site not given here); assay: ELISA, TCE on captured biotin-peptide
T17 construct: mask peptide for the CD3 scFv
T17 peptide: YLCGPDTDETLACY

Peptide-70 [10] = molecular target: T11, Peptide-70; assay: ELISA, TCE on captured biotin-peptide
Peptide-73 [11] = molecular target: T12, Peptide-73; assay: ELISA, TCE on captured biotin-peptide
Peptide-76 = molecular target: B7; assay: ELISA, TCE on captured biotin-peptide
[12] = molecular target: T18, TCE-39 (anti-CD3 scFv P41S, A49G, N87S, L150F, T151S, G163R, P175A, K181T, T200V, A202D, L208I, G211N, L217I, …); assay: competition ELISA, TCE on captured CD3
T18 construct: scFv on the Fab heavy chain

[13] = molecular target: T19, TCE-7 (anti-CD3 scFv wt; anti-TROP2 F108A); assay: competition ELISA, TCE on captured CD3
T19 construct: scFv on the Fab heavy chain

[14] = molecular target: T20, TCE-37 (anti-CD3 scFv F104A; anti-TROP2 F108A); assay: competition ELISA, TCE on captured CD3
T20 construct: scFv on the Fab heavy chain

[15] = molecular target: T1, Human TROP2 ECD (31-274 AA), …; assay: ELISA on immobilized TROP2; binder pre-treated with MTSP1

T6 sequence (P07766 23-126 limits assumed): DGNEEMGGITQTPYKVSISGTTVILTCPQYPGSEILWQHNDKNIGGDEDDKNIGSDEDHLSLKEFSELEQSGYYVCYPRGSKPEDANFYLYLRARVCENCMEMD

## B1
[1]
  EC50: 301 nM
[2]
  EC50: 957 nM
Human TROP2 Full length
  H292 Cytotoxicity EC50 (pM): > 100000 pM
  HCT116 Cytotoxicity EC50 (pM): > 100000 pM
Cyno TROP2 Full length
  CyTROP2 HEK293 EC50 (pM): 8250 pM
[3]
  EC50: 206 nM

## B2
[4]
  EC50: 1.41 nM
[1]
  EC50: 0.36 nM
[3]
  EC50: 0.18 nM

## YLCGPDGDETLACY (also called CD3 scFv peptide mask) [Peptide-70]
αCD3 scFv
  IC50: 10 nM

## VYCGPEFDESVGCM (also called CD3 scFv peptide mask) [Peptide-67]
αCD3 scFv
  IC50: 50 nM

## B3
[5]
  EC50: 1.81 nM
Peptide-74
  EC50: 5.47 nM
Peptide-66
  EC50: 6.28 nM
Peptide-75
  EC50: 6.26 nM
Peptide-68
  EC50: 2.68 nM
Peptide-70 [6]
  EC50: 0.95 nM
Peptide-73 [7]
  EC50: 6.63 nM
Peptide-67
  EC50: 6.46 nM
Peptide-71
  EC50: 4.69 nM

## B4
[5]
  EC50: 0.158 nM

## B5
[8]
  EC50: 0.601 nM
Peptide-74
  EC50: 5.9 nM
Peptide-66
  EC50: 8.02 nM
Peptide-72
  EC50: 5.78 nM
Peptide-75
  EC50: 9.2 nM
Peptide-68
  EC50: 7.71 nM
Peptide-73 [7]
  EC50: 8.15 nM
Peptide-67
  EC50: 5.78 nM
Peptide-69
  EC50: 0.76 nM
Peptide-71
  EC50: 21.7 nM
[9]
  EC50: 1.24 nM

## B6
Peptide-77
  EC50: 1620 nM
Peptide-70 [10]
  EC50: 0.59 nM
Peptide-73 [11]
  EC50: 4.11 nM
Peptide-76
  EC50: 166 nM

## B7
[12]
  IC50: 2790 nM
[13]
  IC50: 17500 nM
[14]
  IC50: 950 nM

## B8
[15]
  EC50: 0.45 nM

## B9
[15]
  EC50: 0.42 nM
